B1: LINE1-mini (parent)
chain: GGCAGAGCUCAACACAGCGUGGCAAAGUGGCUGUGGCUAGACUGCC

Variants of: B1
Test: self-cleavage, relative activity (ratio to wild type); higher = more cleavage; in vitro, sequencing; the parent is a self-cleaving ribozyme
Variant GGCUGAGUUCAACACAGCGUGGCAAAGUGGCUGUGGCUAGACUGCC [A4U C8U] has a self-cleavage of 0.26.
For GGCAGAGCUCAACACAGCGUGGCAAAGGUGCUGUGGCUAGACUGCC [U28G G29U], the self-cleavage was 0.61.
In the case of GGCAGAGCUCAACUCAGCGUAGCAAAGUGGCUGUGGCUAGACUGCC [A14U G21A], the self-cleavage is reported as 0.62.
For GGCAGAGCUCAAGACAGCGUGGCAAAGUGGCUGUGGCUAGCCUGCC [C13G A41C], the self-cleavage was 0.04.
GGCAGAGCUCAAAACAGCGUGGCAAGGUGGCUGUGGCUAGACUGCC [C13A A26G] showed a self-cleavage of 0.12.
For GGCAGAGCUGAACACAGCGUGGCAAAGUGGCUGUGGCAAGACUGCC [C10G U38A], the self-cleavage was 0.06.
GCCAGAGCUAAACACAGCGUGGCAAAGUGGCUGUGGCUAGACUGCC [G2C C10A] gave a self-cleavage of 0.03.
In the case of GCCAGCGCUCAACACAGCGUGGCAAAGUGGCUGUGGCUAGACUGCC [G2C A6C], the self-cleavage is reported as 0.12.
GGAAGAGCUCAACACAGCGUGGCAAAGUGGCUGUGGCUAUACUGCC [C3A G40U] gave a self-cleavage of 0.21.
In the case of GGCAGAGCUCAACACAGCGUGGCAAAGUGGCUGUGCCUAGUCUGCC [G36C A41U], the self-cleavage is reported as 0.14.
Work on GGCAGAGCUCAACACGGCGUGGCAAAGUGGCUGUGGCUAGACUGGC [A16G C45G] yielded a self-cleavage of 0.11.
In the case of GGCAGAGCUCAACAGAGCGUGGCAAAGUGGCUGUGGAUAGACUGCC [C15G C37A], the self-cleavage is reported as 0.06.
With GGCAGAUCUCAACACAGCGUGGCAAAGUGGCAGUGGCUAGACUGCC [G7U U32A] the self-cleavage was 0.08.
With GGCAGAGCUGAACAGAGCGUGGCAAAGUGGCUGUGGCUAGACUGCC [C10G C15G] the self-cleavage was 0.03.
GGCAGAGCUCAACACAGCGUAGCAAUGUGGCUGUGGCUAGACUGCC [G21A A26U] showed a self-cleavage of 1.89.
For GGCAGAGCUCAAAACAGCGUGGCAAAGUUGCUGUGGCUAGACUGCC [C13A G29U], the self-cleavage was 0.2.
Work on GGCAGAGCUCAACAGUGCGUGGCAAAGUGGCUGUGGCUAGACUGCC [C15G A16U] yielded a self-cleavage of 0.05.
GGCAGAGCUCAACACAGCGUGGGACAGUGGCUGUGGCUAGACUGCC [C23G A25C] showed a self-cleavage of 0.69.
GUCAGAGCUCAACACAGCGUGGCAAAGUGGCUGUGGCGAGACUGCC [G2U U38G] gave a self-cleavage of 0.02.
Work on GGCAGAGCACAACACAGCGUGGCAAAGCGGCUGUGGCUAGACUGCC [U9A U28C] yielded a self-cleavage of 0.1.
Work on GGCUGAGCUCAACACAGCGAGGCAAAGUGGCUGUGGCUAGACUGCC [A4U U20A] yielded a self-cleavage of 0.12.
Variant GCCAGAGCUCAACACAGCGUGGCAAAGUGGCUGUGGCUAGACUGAC [G2C C45A] has a self-cleavage of 0.25.
In the case of GGCAGACCUCAACACAGCGUGGCAAAGUGGCUGUGGCGAGACUGCC [G7C U38G], the self-cleavage is reported as 0.02.
In the case of GGCAGCGCUCAACACAGCGUGGCAAAGUGGCGGUGGCUAGACUGCC [A6C U32G], the self-cleavage is reported as 0.05.
Work on GGCAGCGCUCAACACAGCGUGGCAAAGUGGCAGUGGCUAGACUGCC [A6C U32A] yielded a self-cleavage of 0.03.
In the case of GGCAGAGCUCAACGCAGCUUGGCAAAGUGGCUGUGGCUAGACUGCC [A14G G19U], the self-cleavage is reported as 0.54.
GGCAGAGCUAAACACAGCGUGGCACAGUGGCUGUGGCUAGACUGCC [C10A A25C] showed a self-cleavage of 0.05.
AGCAGAGCUCUACACAGCGUGGCAAAGUGGCUGUGGCUAGACUGCC [G1A A11U] gave a self-cleavage of 0.17.
GCCAGAGCUCAACACAGCGUGGCAAAGUGUCUGUGGCUAGACUGCC [G2C G30U] gave a self-cleavage of 0.29.
In the case of GGCACAGCUCAACACAGCGUGGAAAAGUGGCUGUGGCUAGACUGCC [G5C C23A], the self-cleavage is reported as 0.07.
Variant GGCAGAGCUCAACACGGCGUGGCAAAGUGGCUGUGGCUAGACUGCU [A16G C46U] has a self-cleavage of 0.55.
With GGCAGAGCUCAACACAGGGUGGCAAAGUGGCCGUGGCUAGACUGCC [C18G U32C] the self-cleavage was 0.15.
For GGCAGAGCUCAACACAGCAUGGCAAAGUGGCUGUUGCUAGACUGCC [G19A G35U], the self-cleavage was 0.14.
GGCAGAGCUCAACACAGCGUGGCAAAGUGGCUGUGGCCAUACUGCC [U38C G40U] gave a self-cleavage of 0.1.
Work on GGCAGAGCUCAAUACAGCGUGGCAAAGUGGCUGUGGCUAGACUGCA [C13U C46A] yielded a self-cleavage of 0.22.
For GGCAGAGCUCAACACAGCGUGGCAAACUGGCAGUGGCUAGACUGCC [G27C U32A], the self-cleavage was 0.09.
In the case of GGCAGAGCUCAACAAAGCGUGGCAAAGUGGCUGUGGCUAGACUGUC [C15A C45U], the self-cleavage is reported as 0.12.
With GGCAGAGCUCAACACAGCGUGGCAAAGUGGCUGUGGCAAGAUUGCC [U38A C42U] the self-cleavage was 0.21.
In the case of GGGAGAGCUCAACACAGCGUGGCAAAGUGGCUGUGGCUAGACUGAC [C3G C45A], the self-cleavage is reported as 0.45.
GGCAGAGCUAAACACAGCGUGGCAAAGUGGCGGUGGCUAGACUGCC [C10A U32G] showed a self-cleavage of 0.03.
GGCAGAGCUCCACACAGCGUGGCAAAGUGGCUGUGGCUAGAUUGCC [A11C C42U] showed a self-cleavage of 0.02.
In the case of GGCAGAGCUCAACACAGCGUGGCAAGGUGGCCGUGGCUAGACUGCC [A26G U32C], the self-cleavage is reported as 0.18.
In the case of GGCAGAGCUCAUCACAGCGUGGCAAAGUGGCUGUGGCUAGCCUGCC [A12U A41C], the self-cleavage is reported as 0.04.
GGCAGAGCUCAACACAGCGUGGCAAAGUAGCUGUGGCUAGAAUGCC [G29A C42A] gave a self-cleavage of 0.16.
Work on GGCAGAGGUCAACAGAGCGUGGCAAAGUGGCUGUGGCUAGACUGCC [C8G C15G] yielded a self-cleavage of 0.05.
In the case of GGCAGAGCUCAACAUAGCGUGGCAAAGUGGCUGUGGCUUGACUGCC [C15U A39U], the self-cleavage is reported as 0.72.
Work on GGGAGAGCUCAACACAGCGUGACAAAGUGGCUGUGGCUAGACUGCC [C3G G22A] yielded a self-cleavage of 0.36.
Work on GGGAGAGCUCAACACAGCGUGUCAAAGUGGCUGUGGCUAGACUGCC [C3G G22U] yielded a self-cleavage of 0.38.
GGCAGAGCUCAACACAGCGUCGCAAGGUGGCUGUGGCUAGACUGCC [G21C A26G] gave a self-cleavage of 0.35.
With GGUAGAGCUCAACACAGCGUGGCAAAGUGGCUGUGGCUAUACUGCC [C3U G40U] the self-cleavage was 0.12.
With GGCAGAGCUCAACACAGCGUUGCAAAGCGGCUGUGGCUAGACUGCC [G21U U28C] the self-cleavage was 0.92.
With GGCAGAGCUCAACACAGCGUGGCAAAGUGACUAUGGCUAGACUGCC [G30A G33A] the self-cleavage was 0.1.
In the case of GGCAGAGCUCAACACAGCGUGGAAAAGUGGCAGUGGCUAGACUGCC [C23A U32A], the self-cleavage is reported as 0.11.
Variant GGCAGAGCUCAACACAGCAUGGCAAAGUGGCCGUGGCUAGACUGCC [G19A U32C] has a self-cleavage of 0.12.
In the case of GGCAGAGGUCAACACACCGUGGCAAAGUGGCUGUGGCUAGACUGCC [C8G G17C], the self-cleavage is reported as 0.04.
CGCAGAGCUCAACACAGCGUGGCAAAGUGACUGUGGCUAGACUGCC [G1C G30A] showed a self-cleavage of 0.18.
